Assay: soluble on expression in E. coli; label from the status in PepcDB or PDB records

**Q.** Which “soluble on expression in E. coli” value does the source give for “MDHLPIFCQLRDRDCLIVGGGDVAERKARLLLEAGARLTVNALTFIPQFTVWANEGMLTLVEGPFDETLLDSCWLAIAATDDDTVNQRVSDAAESRRIFCNVVDAPKAASFIMPSIIDRSPLMVAVSSGGTSPVLARLLREKLESLLPQHLGQVARYAGQLRARVKKQFATMGERRRFWEKFFVNDRLAQSLANADEKAVNATTERLFSEPLDHRGEVVLVGAGPGDAGLLTLKGLQQIQQADIVVYDRLVSDDIMNLVRRDADRVFVGKRAGYHCVPQEEINQILLREAQKGKRVVRLKGGDPFIFGRGGEELETLCHAGIPFSVVPGITAASGCSAYSGIPLTHRDYAQSVRLVTGHLKTGGELDWENLAAEKQTLVFYMGLNQAATIQEKLIAFGMQADMPVALVENGTSVKQRVVHGVLTQLGELAQQVESPALIIVGRVVALRDKLNWFSNH” here?
**A.** Its value is “soluble”.

**Q.** Which “soluble on expression in E. coli” value does the source give for “MQYHRIPHSSLEVSTLGLGTMTFGEQNSEADAHAQLDYAVAQGINLIDVAEMYPVPPRPETQGLTETYVGNWLAKHGSREKLIIASKVSGPSRNNDKGIRPDQALDRKNIREALHDSLKRLQTDYLDLYQVHWPQRPTNCFGKLGYSWTDSAPAVSLLDTLDALAEYQRAGKIRYIGVSNETAFGVMRYLHLADKHDLPRIVTIQNPYSLLNRSFEVGLAEVSQYEGVELLAYSCLGFGTLTGKYLNGAKPAGARNTLFSRFTRYSGEQTQKAVAAYVDIARRHGLDPAQMALAFVRRQPFVASTLLGATTMDQLKTNIESLHLELSEDVLAEIEAVHQVYTYPAP” here?
**A.** The value was “soluble”.

**Q.** Which “soluble on expression in E. coli” value does the source give for “MGSDKIHHHHHHMSEVSKWPAINPFHWGYNGTVSHIVGENGSIKLHLKDNKEQVDFDEFANKYVPTLKNGAQFKLSPYLFTGILQTLYLGAADFSKKFPVFYGREIVKFSDGGVCTADWLIDSWKKDYEFDQSTTSFDKKKFDKDEKATHPEGWPRLQPRTRYLKDNELEELREVDLPLVVILHGLAGGSHEPIIRSLAENLSRSGRFQVVVLNTRGCARSKITTRNLFTAYHTMDIREFLQREKQRHPDRKLYAVGCSFGATMLANYLGEEGDKSPLSAAATLCNPWDLLLSAIRMSQDWWSRTLFSKNIAQFLTRTVQVNMGELGVPNGSLPDHPPTVKNPSFYMFTPENLIKAKSFKSTREFDEVYTAPALGFPNAMEYYKAASSINRVDTIRVPTLVINSRDDPVVGPDQPYSIVEKNPRILYCRTDLGGHLAYLDKDNNSWATKAIAEFFTKFDELVV” here?
**A.** Its value is “not soluble”.

**Q.** For “MSSVAVLTQESFAEHRSGLVPQQIKVATLNSEEESDPPTYKDAFPPLPEKAACLESAQEPAGAWSNKIRPIKASVITQVFHVPLEERKYKDMNQFGEGEQAKICLEIMQRTGAHLELSLAKDQGLSIMVSGKLDAVMKARKDIVARLQTQASATVPIPKEHHRFVIGKNGEKLQDLELKTATKIQIPRPDDPSNQIKITGTKEGIEKARHEVLLISAEQDKRAVERLEVEKAFHPFIAGPYNRLVGEIMQETGTRINIPPPSVNRTEIVFTGEKEQLAQAVARIKKIYEEKKKKTTTIAVEVKKSQHKYVIGPKGNSLQEILERTGVSVEIPPSDSISETVILRGEPEKLGQALTEVYAKVASSKIKLCSDNS”, which “soluble on expression in E. coli” value is on record?
**A.** The value was “not soluble”.

**Q.** Which “soluble on expression in E. coli” value does the source give for “RPSINFYESLIDSSSLDGKLLSPRRSSGWVRVDTNMWGNPFFGFRSDLVSGQFRPDYPFRFSSNLYLSKEVKEIVLNTIASTPRNGVGRYKYSDLGFILLQQIVEKVSGKSLNVFVEERIFRPIGAGSLGYLPLDKYSVSRIAPAQNDKFLRKSIVRGTVDDE” here?
**A.** Its value is “not soluble”.

**Q.** For “GPGSMWGRYVRVCTREQHSRKQLTSAGVPQGGVPGPKLFLHCVDDLLHRMDNIYSASAFMHADDLKLVASGADIHACAAAMQPALPLITKWAAEHSLKINVAKSESALFHISSHTRSDEDMVDLLPGNGNLRIQSCPVRLLDTTFDRLLNFGPHASTAAKRTMPRRYQLRPVAQAGASHHNTQSFSIGYVHIVLFHNGDAILPCFAHIYLHNMEVRYRDGRKTFLA”, which “soluble on expression in E. coli” value is on record?
**A.** The value was “not soluble”.

**Q.** With “INQPVIETERFDLRPLRKSDMGLIEHYARDERVARMTTSIPHPLPPGMAEGFVARAMSEERTEDVWAMDATRDGGPELMGLISLERMDRNQSEVGYWVAPVFWNTGIASMAVEALVNANPLGNATMFASVFQDNPASARVLTHCGFQYLGDAESYSVARDAAVPTWTYSRKL” as the sequence, how does the “soluble on expression in E. coli” value read?
**A.** Its value is “soluble”.

**Q.** With “MAGYDVVVVGGGHAGLEAAWAAAALGVRVALVTVNPDRIGMMPCNPAVGGPGKSQLVAEVVALGGLMGRAADAAAIHTRVLNRSKGPAVQSLRVQVDRDLYALKAQEILAERPVEVLRGEVAALWVEGGRLLGVRTVDGRTLPAKAVVVAGGTFLSGVVWYGRKSRPAGRQGEPPARFLSQSLKAVGHTLRRFKTGTPPRIRADSVDFGRLEVVPPEVPPGSFTGNPGPHAARLPTWQTRTTERTHRLILENLHLSPLYAGDIQGIGPRYCPSIEDKVVRFADKESHLLFVEPDGLSTTEVYLQGFSSSLPPELQEEMVRSLPGFERAVIQRYAYAVEYDSLDPTELTRGLQSRFLPGLFSAGQVNGTSGYEEAAAQGLLAGLNAARFALGLPEVHLPRESGYIGVLVDDLVGRGTDEPYRMMTSRVELRLLCRADNADERLTPLAVAWGLRPREDLERVEAKYRRVAAELRRLEALRVEGVSGLQWLRRPENTYRALAERFPPPEPLSPEEAYQVEVRAKYAGYIERQERLREKMRDLEAFRIPEGMDFPKVPGLSREAAEKLSRHRPKSLAEAARIPGVRDSDLTALAVHLRRGA” as the sequence, how does the “soluble on expression in E. coli” value read?
**A.** Its value is “not soluble”.

**Q.** Which “soluble on expression in E. coli” value does the source give for “MWLTKLVLNPASRAARRDLANPYEMHRTLSKAVSRALEEGRERLLWRLEPARGLEPPVVLVQTLTEPDWSVLDEGYAQVFPPKPFHPALKPGQRLRFRLRANPAKRLAATGKRVALKTPAEKVAWLERRLEEGGFRLLEGERGPWVQILQDTFLEVRRKKDGEEAGKLLQVQAVLFEGRLEVVDPERALATLRRGVGPGKALGLGLLSVAP” here?
**A.** Its value is “soluble”.

**Q.** With “MEFRQLKYFIAVAEAGNMAAAAKRLHVSQPPITRQMQALEADLGVVLLERSHRGIELTAAGHAFLEDARRILELAGRSGDRSRAAARGDVGELSVAYFGTPIYRSLPLLLRAFLTSTPTATVSLTHMTKDEQVEGLLAGTIHVGFSRFFPRHPGIEIVNIAQEDLYLAVHRSQSGKFGKTCKLADLRAVELTLFPRGGRPSFADEVIGLFKHAGIEPRIARVVEDATAALALTMAGAASSIVPASVAAIRWPDIAFARIVGTRVKVPISCIFRKEKQPPILARFVEHVRRSAKD” as the sequence, how does the “soluble on expression in E. coli” value read?
**A.** The value was “soluble”.

**Q.** With “MGKEKVHINIVVIGHVDSGKSTTTGHLIYKCGGIDKRTIEKFEKEAQEMGKGSFKYAWVLDKLKAERERGITIDIALWKFETAKYYITIIDAPGHRDFIKNMITGTSQADCAVLVVACGTGEFEAGISKNGQTREHALLAQTLGVKQLIVACNKMDSTEPPFSEARFTEITNEVSGFIKKIGYNPKAVPFVPISGFNGDNMLEVSSNMPWFKGWAVERKEGNASGKTLLEALDSIIPPQRPTDRPLRLPLQDVYKIGGIGTVPVGRVETGIIKPGMVVTFAPQNVTTEVKSVEMHHESLPEAVPGDNVGFNVKNVSVKDIRRGSVCSDSKQDPAKEARTFHAQVIIMNHPGQISNGYTPVLDCHTAHIACKFNELKEKVDRRTGKKVEDFPKFLKSGDAGIVELIPTKPLCVESFTDYAPLGRFAVRDMRQTVAVGVIKSVEKSDGSSGKVTKSAQKAAPKKK” as the sequence, how does the “soluble on expression in E. coli” value read?
**A.** Its value is “not soluble”.

**Q.** Which “soluble on expression in E. coli” value does the source give for “MGSDKIHHHHHHVSIPANNSPVRLALIGAGRWGKNYIRTIAGLPGAALVRLASSNPDNLALVPPGCVIESDWRSVVSAPEVEAVIIATPPATHAEITLAAIASGKAVLVEKPLTLDLAEAEAVAAAAKATGVMVWVEHTQLFNPAWEALKADLTSIGPILAVRSEAGNHGPYRPGGVPMLWDWGAHDVSMVLDLMGRDPDSTSASWAARGEKDGGEAGDVTLTLAFSTVEAHIRLCNTMDKCRRLAVFGEAGTLVMDDRATDKLTLHPPQPDGNWPVGQGHALTVTDEMPLTRAVRLFAGAVRQPEPGPSPLELGLRVVRVLGACS” here?
**A.** Its value is “not soluble”.

**Q.** Which “soluble on expression in E. coli” value does the source give for “MRPKVSVALATYNGEKYIEEQLESIIKQTRAPDELVICDDCSNDETINIITKKIKNAHFDVKLVSNDKNIGYVQNFSKALEMSSGDIVFLCDQDDVWLSDKIEFIINKFNTRPDIQLLIHDVDYCKEDLTPIGQTKLQRMESNFDIESDYVVGMATAVRRSFLVHCLPVPSAPEVTHDEWLHDCARVLGCKGIVREVLALYRRHSLNVTAPSRLNVDFVTTRHYFGNESLAFLKLFRMETDLGSPDISPLVQWLDSRKMVLLDNGFSSEDRINTFIQYEEKRLRARNSRQSILRLDRWKRLFPIYDLYRSGGYHYYCGWKSALKDLLRTYALEHHHHHH” here?
**A.** The value was “soluble”.

**Q.** Which “soluble on expression in E. coli” value does the source give for “MLKTILSIAGKPGLYKLISQGKNMLIVETVDAAKKRVPAYAHDKVISLADIAMYTDAEEVPLSEVLEAVKKKENGAVASINYKKASADELHAYFAEVLPNYDRDRVHNGDIKKLISWYNILVNNGITEFVEAPADSADKVEEAVAELEHHHHHH” here?
**A.** Its value is “soluble”.

**Q.** For “MEYRLFGQVTRALMDASQAPADDIATRIDALDWNRKVWSALATDCALPENQLPMELRASIISLSLWVGRHSSAVMRKEEDFEPLIEINRMIMQGLAGRADAA”, which “soluble on expression in E. coli” value is on record?
**A.** Its value is “not soluble”.

**Q.** Which “soluble on expression in E. coli” value does the source give for “MKWHGLPACDSNPNSTTEFCRTRRPTKTMNSPATQTATPTNVDIASIVEQVLRRLRDQTNTNGSTSKPATHAPSAHVLSDKVISVDVIRGIPSGVTQVQLSGGIVTPAARDEMRARGISLAGAESTSAAAIKPASNSGKRFIQLHTDTSSKSIRDALARQLALRGVDHCPRAHRSVIVTKHPATALLGRIQSGARAVLITRLEDIPRFASEIDADTFVLDMQRFNLVALVNAATSIAQLSTSSTSQEAT” here?
**A.** The value was “not soluble”.

**Q.** For “MSEPLHALARQLEQAIRASEPFQQLKRAYEDVRRDETAYRMFANVRDIQLRLHEKQMRGAAILPDEIEQAQKAMALAQQNEKLARLMALEQQMSITIAEVQQIAMKPLEELHRSFMEGR”, which “soluble on expression in E. coli” value is on record?
**A.** Its value is “soluble”.

**Q.** For “MSSIKTSPTKKTSESTTKQDTPNDQTNIENFDEEPSMLSDPEDYLEENETLDMNLSKGDQKVWLVKLPKYLMDDWSNPDSMNGQQLGNVKIKKDARGKLQVKLLLDNKNDRIPKEYDIKMLNTQVRNSYVFTEENLKKFKQEVTEVSDMPEQPQLKELNPEKKKFQVRRKFKYFRVQKEGENGQPVKKYIPFVKTIPKKTSLMGKVCHDCTVVPARTGSKHGESLMKHQNMTQGKERPKVTLLNEIPGVIQSNAGPSIKGNAASIFLKSTQGKNKSEGRTIRMPKKDLLDLLFRLFEEYEYWSMKGLKERTRQPESYLKESLESIATLIKRGPYTSKYTLKAEYRRLRDAERAVRLGLDEDDQNKENNEDEDEDEEMEDVV”, which “soluble on expression in E. coli” value is on record?
**A.** The value was “soluble”.

**Q.** For “MKVLAIDTSNYVMGVSLIEEGNVIGEIITNLTKNHSVRLMPAVEQLLKECGVKPKELTKIVVAAGPGSYTGVRIGVTAAKTLAWSLQIPIVGVSSLEVVAANGANFNGLISPLFDGRRGQIYTGLYTYEGEDLTSIEEDRIILIVDWLQMLKDKGKPVLFIGNDVKLHKETIIEHLGDQAVFAPVTKNNPRPSELAFLGLQKEEQDVHSFVPSYLRLAEAETKWLESQNK”, which “soluble on expression in E. coli” value is on record?
**A.** Its value is “not soluble”.

**Q.** Which “soluble on expression in E. coli” value does the source give for “KVQTDPPSVPICDLYPNGVFPKGQECEYPPTQDGRTAAWRTTSEEKKALDQASEEIWNDFREAAEAHRQVRKYVMSWIKPGMTMIEICEKLEDCSRKLIKENGLNAGLAFPTGCSLNNCAAHYTPNAGDTTVLQYDDICKIDFGTHISGRIIDCAFTVTFNPKYDTLLKAVKDATNTGIKCAGIDVRLCDVGEAIQEVMESYEVEIDGKTYQVKPIRNLNGHSIGQYRIHAGKTVPIIKGGEATRMEEGEVYAIETFGSTGKGVVHDDMECSHYMKNFDVGHVPIRLPRTKHLLNVINENFGTLAFCRRWLDRLGESKYLMALKNLCDLGIVDPYPPLCDIKGSYTAQFEHTILLRPTCKEVVSRGDDY” here?
**A.** Its value is “soluble”.

— the DeepSol protein solubility set
